Assay [1] relates to hnRNPA1. The experiment in a line: Methylation of hnRNP A1, SDS-PAGE and fluorography (FIG. 8C). Format: biochemical, human. The conditions noted are these: 0.083 mg/ml hnRNP-A1. The protocol: CARM1 and PRMT1 have different protein methyltransferase substrate specificities. CARM1 methylates histone H3, whereas PRMT1 methylates histone H4. […] (A,B) Calf thymus histones (Boehringer Mannheim) were incubated for 30 min at 30° C. in 32.5 μl reactions containing 20 mM Tris-Cl, 0.2 M NaCl, 4 mM EDTA, pH 8.0, 0.32 mg/ml individual histone (2a, 2b, 3, or 4) or 1.3 mg/ml mixed histone (M), 0.037 mg/ml GST-CARM1 or GST-PRMT1, and 7 μM S-adenosyl-L-[methyl-^3H]methionine (specific activity of 14.7 Ci/mmol). Reactions were stopped by addition of SDS-NuPAGE sample buffer (Novex), and 40% of each stopped reaction was then subjected to SDS-PAGE in 4-12% NuPAGE Bis-Tris gradient gels (Novex) using the Na-MES running buffer. Gels were stained with Coomassie Blue R-250 (A), and then subjected to fluorography (Chamberlin, M. (1978) Anal. Biochem. 98:132) for 12 h at −70° C. on sensitized Kodak XAR-5 film (B). Molecular weight markers (MW) are shown at left. Concentrations of GST fusion proteins were determined in comparison with bovine serum albumin standards (Sigma) by SDS polyacrylamide gel electrophoresis and Coomassie Blue staining; it was assumed that bovine serum albumin stained twice as intensely as most other proteins. Concentrations of histones and hnRNP A1 were determined by the method of Lowry (Lowry, O. H. et al. (1951) J. Biol. Chem. 193:265). […]

The target in assay [2] is T1, Gal4 DBD-GRIP1c (Mus musculus, UniProt Q61026).
T1 construct: coding for Gal4 DBD-GRIP1c where GRIP1c is GRIP1 amino acids 1121-1462; expressed in transfected cells; host or cells: CV-1 cells
Description: Reporter gene activation by Gal4 DBD-GRIP1c in transiently transfected CV-1 cells. It is filed as cell-based. The conditions noted are these: co-expression with Gal4 DBD-GRIP1c, dose-dependent. How it is done:
A) CV-1 cells in 6-well dishes (3.3 cm diameter well) were transiently transfected with 0.5 of μg pM.GRIP1c (coding for Gal4 DBD-GRIP1c where GRIP1c is GRIP1 amino acids 1121-1462), 0.5 μg of GK1 reporter gene (luciferase gene controlled by Gal4 binding sites) (Webb, P. et al., (1998) Mol. Endocrinol. 12:1605), and 0-0.8 μg of pSG5.HA-CARM1, using Superfectin (Qiagen) according to manufacturer's protocol. Total DNA was adjusted to 2.0 μg per well with the appropriate amount of pSG5. Cell extracts were prepared approximately 48 h after transfection and assayed with Promega Luciferase Assay kit. Relative light units of luciferase activity presented are the mean and standard deviation of three transfected wells. B) CV-1 cells were transfected as in A with the indicated amount of pM.GRIP1c and zero or 0.5 μg of pSG5.HA-CARM1.
In transient transfections of CV-1 cells, Gal4 DBD-GRIP1c weakly activates expression of a reporter gene with a promoter containing Gal4 binding sites; co-expression of CARM1 enhances reporter gene activity in a dose-dependent manner and provides a maximum stimulation of more than 10-fold (FIG. 5). CARM1 expression has little if any effect on the activity of Gal4DBD alone (FIG. 6A). CARM1 also enhances the activity of full length GRIP1 fused to Gal4DBD.
On the technique in general: A reporter such as luciferase makes a cellular process visible.

B1: CARM1: novel murine protein arginine methyltransferase and transcriptional coactivator, 608 amino acids (protein, listed as Mus musculus)
chain: MAAAAATAVGPGAGSAGVAGPGGAGPCATVSVFPGARLLTIGDANGEIQRHAEQQALRLEVRAGPDAAGIALYSHEDVCVFKCSVSRETECSRVGRQSFIITLGCNSVLIQFATPHDFCSFYNILKTCRGHTLERSVFSERTEESSAVQYFQFYGYLSQQQNMMQDYVRTGTYQRAILQNHTDFKDKIVLDVGCGSGILSFFAAQAGARKIYAVEASTMAQHAEVLVKSNNLTDRIVVIPGKVEEVSLPEQVDIIISEPMGYMLFNERMLESYLHAKKYLKPSGNMFPTIGDVHLAPFTDEQLYMEQFTKANFRYQPSFHGVDLSALRGAAVDEYFRQPVVDTFDIRILMAKSVKYTVNFLEAKEGDLHRIEIPFKFHMLHSGLVHGLAFWFDVAFIGSIMTVWLSTAPTEPLTHWYQVRCLFQSPLFAKAGDTLSGTCLLIANKRQSYDISIVAQVDQTGSKSSNLLDLKNPFFRYTGTTPSPPPGSHYTSPSENMWNTGSTYNLSSGVAVAGMPTAYDLSSVIAGGSSVGHNNLIPLANTGIVNHTHSRMGSIMSTGIVQGSSGAQGGGGSSSAHYAVNNQFTMGGPAISMASPMSIPTNTMHYGS
With B1, the “methylation of hnRNPA1” value in assay [1] is reported as “not methylated”. In addition, the “maximum stimulation of reporter gene activity” value in assay [2] was “more than 10 fold”.

For the origin of these results see US8247168B2, “Regulation of gene expression by protein methylation” (University of Southern California, priority 1998, dated 2012).
